Test results as given in the supplement of paper PMC9112550, “Optimization of the antimicrobial peptide Bac7 by deep mutational scanning” (BMC Biology, 2022).

system: Escherichia coli TOP10; assay: shrunken log2 fold change of peptide-encoding DNA abundance (4.5 h post-induction vs induction); higher = less antimicrobial activity (less host growth inhibition); conditions: time post-induction: 4.5 h; library: site-saturation at positions 5, 18, 19, 20
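Also: peptides expressed intracellularly from a pBAD plasmid library in pooled LB shake-flask culture, induced with 0.3% L-arabinose, DNA abundance read by NGS, three biological replicates, DESeq2 with apeglm shrinkage.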

First: RRIRCRPPRLPRPRPRPCVIPRP
Second: RRIRIRPPRLPRPRPRPFHHPRP
The “shrunken log2 fold change” value of the first is lower: -0.334 for the first, 0.0886 for the second.

First: RRIRGRPPRLPRPRPRPFQAPRP
Second: RRIRSRPPRLPRPRPRPGEEPRP
The “shrunken log2 fold change” value of the first is lower: 0.112 for the first, 0.499 for the second.

Going from RRIRKRPPRLPRPRPRPIVKPRP to RRIRMRPPRLPRPRPRPEYWPRP, the “shrunken log2 fold change” value rises from -0.158 to 0.339.

Compared with RRIRERPPRLPRPRPRPCTAPRP, RRIRVRPPRLPRPRPRPGAFPRP is higher in “shrunken log2 fold change” value: -0.337 for the first, 0.0224 for the second.

First: RRIRLRPPRLPRPRPRPVIWPRP
Second: RRIRARPPRLPRPRPRPKKVPRP
The “shrunken log2 fold change” value of the first is lower: 0.0724 for the first, 0.708 for the second.

First: RRIRMRPPRLPRPRPRPFGYPRP
Second: RRIRIRPPRLPRPRPRPRMYPRP
The “shrunken log2 fold change” value of the first is higher: 0.067 for the first, -0.33 for the second.

RRIRLRPPRLPRPRPRPVYWPRP and RRIRSRPPRLPRPRPRPDEWPRP are within 0.2 log units of each other in “shrunken log2 fold change” value: -0.14 for the first, -0.00195 for the second.

First: RRIRWRPPRLPRPRPRPSHIPRP
Second: RRIRPRPPRLPRPRPRPRMFPRP
The “shrunken log2 fold change” value of the first is lower: -0.241 for the first, 0.0598 for the second.

Going from RRIRKRPPRLPRPRPRPKNQPRP to RRIRTRPPRLPRPRPRPEHMPRP, the “shrunken log2 fold change” value falls from 0.419 to -0.0375.

First: RRIRVRPPRLPRPRPRPGSSPRP
Second: RRIRRRPPRLPRPRPRPMMSPRP
The “shrunken log2 fold change” value of the first is lower: -0.169 for the first, 0.0352 for the second.

Compared with RRIRPRPPRLPRPRPRPYENPRP, RRIRRRPPRLPRPRPRPTQLPRP is higher in “shrunken log2 fold change” value: -0.66 for the first, 0.628 for the second.

RRIRSRPPRLPRPRPRPRTDPRP and RRIRHRPPRLPRPRPRPWRVPRP are within 0.2 log units of each other in “shrunken log2 fold change” value: 0.0755 for the first, 0.0326 for the second.

RRIRTRPPRLPRPRPRPTGGPRP and RRIRSRPPRLPRPRPRPMQDPRP are within 0.2 log units of each other in “shrunken log2 fold change” value: 0.164 for the first, 0.125 for the second.

RRIRNRPPRLPRPRPRPPMNPRP and RRIRYRPPRLPRPRPRPHMRPRP are within 0.2 log units of each other in “shrunken log2 fold change” value: -0.0606 for the first, -0.02 for the second.

RRIRVRPPRLPRPRPRPQCHPRP and RRIRSRPPRLPRPRPRPYGYPRP are within 0.2 log units of each other in “shrunken log2 fold change” value: -0.0451 for the first, -0.00281 for the second.

Compared with RRIRFRPPRLPRPRPRPAAHPRP, RRIRNRPPRLPRPRPRPNIWPRP is lower in “shrunken log2 fold change” value: 0.333 for the first, -0.636 for the second.

First: RRIRVRPPRLPRPRPRPKRPPRP
Second: RRIRMRPPRLPRPRPRPSYMPRP
The “shrunken log2 fold change” value of the first is higher: 0.32 for the first, -0.276 for the second.

RRIRWRPPRLPRPRPRPQQFPRP and RRIRWRPPRLPRPRPRPVKLPRP are within 0.2 log units of each other in “shrunken log2 fold change” value: -0.262 for the first, -0.0719 for the second.

RRIRPRPPRLPRPRPRPHHRPRP and RRIRCRPPRLPRPRPRPTEFPRP are within 0.2 log units of each other in “shrunken log2 fold change” value: -0.118 for the first, -0.0561 for the second.

Going from RRIRIRPPRLPRPRPRPAIDPRP to RRIRVRPPRLPRPRPRPFDVPRP, the “shrunken log2 fold change” value rises from -0.239 to -0.0208.

RRIRRRPPRLPRPRPRPFLYPRP and RRIRGRPPRLPRPRPRPHCTPRP are within 0.2 log units of each other in “shrunken log2 fold change” value: 0.0538 for the first, -0.0815 for the second.

RRIRIRPPRLPRPRPRPVDDPRP and RRIRGRPPRLPRPRPRPTIPPRP are within 0.2 log units of each other in “shrunken log2 fold change” value: -0.0762 for the first, -0.0601 for the second.

RRIRSRPPRLPRPRPRPKIIPRP and RRIRSRPPRLPRPRPRPGMAPRP are within 0.2 log units of each other in “shrunken log2 fold change” value: -0.0525 for the first, 0.0998 for the second.

RRIRFRPPRLPRPRPRPQAKPRP and RRIRPRPPRLPRPRPRPDDSPRP are within 0.2 log units of each other in “shrunken log2 fold change” value: 0.128 for the first, 0.0427 for the second.

Going from RRIRTRPPRLPRPRPRPHRMPRP to RRIRYRPPRLPRPRPRPTIQPRP, the “shrunken log2 fold change” value falls from -0.267 to -1.09.

Going from RRIRERPPRLPRPRPRPCCWPRP to RRIRQRPPRLPRPRPRPTWVPRP, the “shrunken log2 fold change” value rises from 0.185 to 2.03.

RRIRPRPPRLPRPRPRPRAYPRP and RRIRVRPPRLPRPRPRPFVRPRP are within 0.2 log units of each other in “shrunken log2 fold change” value: -0.13 for the first, -0.0708 for the second.

First: RRIRVRPPRLPRPRPRPVPCPRP
Second: RRIRKRPPRLPRPRPRPPKAPRP
The “shrunken log2 fold change” value of the first is lower: -0.162 for the first, 0.609 for the second.

Compared with RRIRMRPPRLPRPRPRPEACPRP, RRIRNRPPRLPRPRPRPVQPPRP is lower in “shrunken log2 fold change” value: 3.9 for the first, 0.0494 for the second.

Going from RRIRDRPPRLPRPRPRPNGKPRP to RRIRKRPPRLPRPRPRPHNQPRP, the “shrunken log2 fold change” value rises from -0.181 to 0.0277.

First: RRIRERPPRLPRPRPRPCKWPRP
Second: RRIRIRPPRLPRPRPRPCIQPRP
The “shrunken log2 fold change” value of the first is higher: 0.0276 for the first, -0.185 for the second.

First: RRIRRRPPRLPRPRPRPWPDPRP
Second: RRIRIRPPRLPRPRPRPIPYPRP
The “shrunken log2 fold change” value of the first is higher: 0.0719 for the first, -0.295 for the second.

RRIRMRPPRLPRPRPRPQWGPRP and RRIRDRPPRLPRPRPRPGVIPRP are within 0.2 log units of each other in “shrunken log2 fold change” value: 0.0503 for the first, -0.00423 for the second.

RRIRVRPPRLPRPRPRPGKIPRP and RRIRERPPRLPRPRPRPHCGPRP are within 0.2 log units of each other in “shrunken log2 fold change” value: -0.346 for the first, -0.333 for the second.

RRIRWRPPRLPRPRPRPFIHPRP and RRIRSRPPRLPRPRPRPHWVPRP are within 0.2 log units of each other in “shrunken log2 fold change” value: -0.286 for the first, -0.166 for the second.

Compared with RRIRSRPPRLPRPRPRPEIMPRP, RRIRMRPPRLPRPRPRPLQMPRP is higher in “shrunken log2 fold change” value: 0.0625 for the first, 2.29 for the second.

First: RRIRVRPPRLPRPRPRPGPHPRP
Second: RRIRFRPPRLPRPRPRPSGMPRP
The “shrunken log2 fold change” value of the first is higher: 0.121 for the first, -0.637 for the second.

Compared with RRIRFRPPRLPRPRPRPIAAPRP, RRIRWRPPRLPRPRPRPQCGPRP is lower in “shrunken log2 fold change” value: 0.417 for the first, -0.0434 for the second.

First: RRIRRRPPRLPRPRPRPTLSPRP
Second: RRIRNRPPRLPRPRPRPSNDPRP
The “shrunken log2 fold change” value of the first is higher: -0.0436 for the first, -0.349 for the second.

RRIRERPPRLPRPRPRPDNPPRP and RRIRVRPPRLPRPRPRPPWFPRP are within 0.2 log units of each other in “shrunken log2 fold change” value: -0.0894 for the first, 0.0493 for the second.

Going from RRIRWRPPRLPRPRPRPRTKPRP to RRIRSRPPRLPRPRPRPSAEPRP, the “shrunken log2 fold change” value falls from 1.88 to 0.567.

RRIRIRPPRLPRPRPRPGEYPRP and RRIRYRPPRLPRPRPRPHVCPRP are within 0.2 log units of each other in “shrunken log2 fold change” value: -0.161 for the first, -0.358 for the second.

First: RRIRSRPPRLPRPRPRPMCAPRP
Second: RRIRLRPPRLPRPRPRPCNVPRP
The “shrunken log2 fold change” value of the first is higher: 0.29 for the first, -0.3 for the second.

Going from RRIRARPPRLPRPRPRPRSEPRP to RRIRARPPRLPRPRPRPMLFPRP, the “shrunken log2 fold change” value rises from 0.42 to 0.674.

Compared with RRIRPRPPRLPRPRPRPFWIPRP, RRIRKRPPRLPRPRPRPVEVPRP is higher in “shrunken log2 fold change” value: -0.161 for the first, 0.0844 for the second.

Going from RRIRIRPPRLPRPRPRPDERPRP to RRIRLRPPRLPRPRPRPHYHPRP, the “shrunken log2 fold change” value falls from -0.0172 to -1.26.

Going from RRIRVRPPRLPRPRPRPYFAPRP to RRIRRRPPRLPRPRPRPGPCPRP, the “shrunken log2 fold change” value rises from -0.246 to 0.0678.

RRIRPRPPRLPRPRPRPPNYPRP and RRIRDRPPRLPRPRPRPYNFPRP are within 0.2 log units of each other in “shrunken log2 fold change” value: -0.0609 for the first, -0.0811 for the second.

Going from RRIRYRPPRLPRPRPRPKVYPRP to RRIRVRPPRLPRPRPRPNWMPRP, the “shrunken log2 fold change” value rises from -1.13 to -0.235.

Compared with RRIRCRPPRLPRPRPRPGDPPRP, RRIRPRPPRLPRPRPRPGKRPRP is higher in “shrunken log2 fold change” value: 0.132 for the first, 0.389 for the second.

RRIRVRPPRLPRPRPRPVINPRP and RRIRERPPRLPRPRPRPYTHPRP are within 0.2 log units of each other in “shrunken log2 fold change” value: -0.712 for the first, -0.623 for the second.

Going from RRIRIRPPRLPRPRPRPTHFPRP to RRIRYRPPRLPRPRPRPSVSPRP, the “shrunken log2 fold change” value falls from -0.0417 to -0.747.

Compared with RRIRDRPPRLPRPRPRPNEQPRP, RRIRIRPPRLPRPRPRPYNDPRP is lower in “shrunken log2 fold change” value: -0.0164 for the first, -0.313 for the second.

RRIRLRPPRLPRPRPRPTSVPRP and RRIRHRPPRLPRPRPRPAVCPRP are within 0.2 log units of each other in “shrunken log2 fold change” value: -0.0387 for the first, 0.0561 for the second.

For RRIRWRPPRLPRPRPRPHPRPRP, the “shrunken log2 fold change” value was 0.451.
